Experimental data as given in patent US20040115741A1.

Target: HM1.24 antigen (human) (UniProt Q10589)
Assay: flow cytometry on KPMM2 cells, control antibody

UniProt Q10589, sequence (Q10589 1-161 limits assumed): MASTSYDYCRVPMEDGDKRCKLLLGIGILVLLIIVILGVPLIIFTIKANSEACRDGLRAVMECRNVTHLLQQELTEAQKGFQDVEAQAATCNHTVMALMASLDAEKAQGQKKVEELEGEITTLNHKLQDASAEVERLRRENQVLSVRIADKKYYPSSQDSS

Geo Mean of fluorescence intensity: 17.3
Substance: control antibody human IgG1 (hIgG1), Human IgG1, Kappa (SIGMA Cat. No. I3889)
